Measured values: PMC11102866

How the values were obtained:
[1] = molecular target: NR5A2 D159A D159A (Homo sapiens) (UniProt O00482); assay: smFRET; conditions: EMSA: 20 mM Tris-HCl pH 7.5, 120 mM NaCl, 1 mM MgCl2, 10 uM ZnCl2, 1 mM DTT, 100 ug/ml BSA, room temperature, 30 min, 50 nM DNA or nucleosome
[2] = molecular target: NR5A2 wild type (Homo sapiens) (UniProt O00482); assay: smFRET; conditions: EMSA: 20 mM Tris-HCl pH 7.5, 120 mM NaCl, 1 mM MgCl2, 10 uM ZnCl2, 1 mM DTT, 100 ug/ml BSA, room temperature, 30 min, 50 nM DNA or nucleosome
[3] = molecular target: nucleosome reconstituted with Alexa-Fluor-647-labeled H2A-K119C–H2B, H3.3–H4 and DNA carrying the Nr5a2 motif (mouse) (UniProt P10853); assay: FRET or BRET; single-molecule FRET (TIRF): nucleosomes held on the surface by biotin-streptavidin, Cy3 on the 5' end of 601 DNA next to the motif at SHL +5.5, Alexa Fluor 647 on H2A-K119C; NR5A2 flowed in at 0.1 or 0.5 uM (quantified at 0.1 uM); 50 mM Tris pH 7.6, 120 mM NaCl, 1 mM MgCl2, 10 uM ZnCl2, 10% glycerol, 1 mM DTT, 100 ug/ml BSA; 22.5 C; low-FRET state taken as NR5A2 dwell time, single exponential fits, three replicates

| average lifetime of the high-FRET (wrapped, unbound) state [3] [s] | duration of the low-FRET (unwrapped) state, taken as NR5A2 dwell time [3] [s] | Substance | binding signal [1] [s] | binding signal ([1]; mean lifetime of low-FRET (unwrapped) state, less stable than wild type) [s] | binding signal [2] [s] | binding signal ([2]; mean lifetime of low-FRET (unwrapped) state) [s] |
| --- | --- | --- | --- | --- | --- | --- |
| – | – | 601 nucleosome SHL +5.5 for smFRET, with linker DNA | 16.4 | 9.19 | 20.3 | 16.4 |
| 20.3 | 16.4 | human NR5A2 (from UniProt O00482 1-541) (natural protein) | – | – | – | – |
| 16.4 | 9.19 | human NR5A2-D159A (from UniProt O00482 1-541) (natural protein) | – | – | – | – |
